Experimental data from the supplement of paper PMC10724198.
± gives the standard deviation of the averaged measurements.

How the values were obtained:
[1] = system: Saccharomyces cerevisiae; assay: protein stability index of tFT-peptide fusion (C-terminal peptide) (PSI (0-1 scale)); higher = more stable (slower turnover)
Description: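 MPS profiling in S. cerevisiae of the tFT-X12 degron library: putative degron peptides plus stable controls, 12 aa, fused to the C-terminus of a sfGFP-mCherry timer. Cells are FACS-sorted into 8 mCherry/sfGFP bins and deep-sequenced. PSI runs from 0 (unstable) to 1 (stable). Backgrounds are wild type, das1Δ and doa10Δ at 30 °C, and wild type, das1Δ, cdc34-1 and cdc53-1 at 37 °C; 2-3 technical replicates each.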

[2] = system: Saccharomyces cerevisiae; assay: as above; details: genetic background: wild type; temperature: 30 C
[3] = genetic background: cdc34-1, temperature: 37 C
[4] = genetic background: cdc53-1, temperature: 37 C
[5] = genetic background: das1 deletion, temperature: 30 C
[6] = genetic background: das1 deletion, temperature: 37 C
[7] = genetic background: doa10 deletion, temperature: 30 C
[8] = genetic background: wild type, temperature: 30 C
[9] = genetic background: wild type, temperature: 37 C
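Note: PSI is a weighted mean of sequencing reads over stability bins, variants kept only with over 10 reads, mCherry proximal and sfGFP distal, peptide attached via GGGS linker.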

Sequence | protein stability index [1, 3] | protein stability index [1, 4] | protein stability index [1, 5] | protein stability index [1, 6] | protein stability index [1, 7] | protein stability index [1, 8] | protein stability index [1, 9] | protein stability index [2]
RQINEKKKLYMI | 0.513 ± 0.029 | 0.673 ± 0.14 | 0.639 ± 0.024 | 0.727 ± 0.041 | 0.1 ± 0.013 | 0.102 ± 0.028 | 0.182 ± 0.029 | 0.215 ± 0.033
SQCVVYLSVRFS | 0.358 ± 0.067 | 0.5 ± 0.017 | 0.34 ± 0.028 | 0.47856 ± 0.00019 | 0.326 ± 0.014 | 0.353 ± 0.011 | 0.4565 ± 0.0028 | 0.447 ± 0.024
CFSIPLVILNVL | 0.468 ± 0.018 | 0.496 ± 0.02 | 0.431 ± 0.018 | 0.531 ± 0.025 | 0.335 ± 0.0063 | 0.338 ± 0.02 | 0.455 ± 0.0097 | 0.413 ± 0.0076
TYNVMFSPWRKA | 0.604 ± 0.07 | 0.7064 ± 0.005 | 0.667 ± 0.032 | 0.774 ± 0.0098 | 0.106 ± 0.007 | 0.148 ± 0.034 | 0.3808 ± 0.0022 | 0.206 ± 0.011
LARRASCFWVRC | 0.671 ± 0.015 | 0.721 ± 0.011 | 0.633 ± 0.026 | 0.71798 ± 0.00063 | 0.251 ± 0.019 | 0.303 ± 0.017 | 0.559 ± 0.011 | 0.452 ± 0.0072
FFIVGACAYVFA | 0.223 ± 0.036 | 0.30494 ± 0.00019 | 0.228 ± 0.031 | 0.385 ± 0.0094 | 0.204 ± 0.013 | 0.231 ± 0.029 | 0.37 ± 0.015 | 0.319 ± 0.033
FIGVLVFSWLLF | 0.244 ± 0.029 | 0.371 ± 0.0074 | 0.241 ± 0.035 | 0.412 ± 0.021 | 0.215 ± 0.0034 | 0.235 ± 0.024 | 0.381 ± 0.021 | 0.37 ± 0.03
LVGYCGAWACVV | 0.642 ± 0.034 | 0.677 ± 0.021 | 0.558 ± 0.023 | 0.674 ± 0.018 | 0.244 ± 0.011 | 0.283 ± 0.027 | 0.501 ± 0.025 | 0.4 ± 0.036
FVFCTCSFFFLW | 0.5113 ± 0.0046 | 0.532 ± 0.011 | 0.421 ± 0.026 | 0.54 ± 0.021 | 0.374 ± 0.004 | 0.393 ± 0.029 | 0.5103 ± 0.00052 | 0.477 ± 0.0076
AMFQLRLLVGSV | 0.489 ± 0.036 | 0.508 ± 0.018 | 0.386 ± 0.037 | 0.5436 ± 0.0049 | 0.36 ± 0.016 | 0.391 ± 0.0056 | 0.5001 ± 0.0027 | 0.499 ± 0.033
VRTFVFLVGYCE | 0.594 ± 0.032 | 0.62 ± 0.024 | 0.406 ± 0.027 | 0.614 ± 0.023 | 0.393 ± 0.035 | 0.394 ± 0.034 | 0.557 ± 0.04 | 0.458 ± 0.036
GGLVVYVWGRWS | 0.526 ± 0.017 | 0.592 ± 0.025 | 0.383 ± 0.016 | 0.589 ± 0.009 | 0.356 ± 0.021 | 0.377 ± 0.015 | 0.573 ± 0.023 | 0.457 ± 0.024
LLSAFPYLPVFA | 0.277 ± 0.025 | 0.326 ± 0.048 | 0.251 ± 0.02 | 0.3941 ± 0.0035 | 0.2141 ± 0.00033 | 0.244 ± 0.022 | 0.373 ± 0.044 | 0.337 ± 0.0066
PDRSTILHISGF | 0.721 ± 0.021 | 0.7606 ± 0.001 | 0.642 ± 0.034 | 0.744 ± 0.022 | 0.644 ± 0.037 | 0.633 ± 0.0087 | 0.728 ± 0.023 | 0.699 ± 0.019
LVVWASLVRVEG | 0.271 ± 0.033 | 0.3235 ± 0.003 | 0.252 ± 0.037 | 0.4191 ± 0.0033 | 0.2034 ± 0.00022 | 0.255 ± 0.02 | 0.389 ± 0.0079 | 0.33 ± 0.032
LQCVYFVFFICF | 0.2682 ± 0.0023 | 0.4 ± 0.016 | 0.266 ± 0.018 | 0.412 ± 0.0067 | 0.235 ± 0.0054 | 0.251 ± 0.015 | 0.37 ± 0.032 | 0.399 ± 0.051
FYFLSFLLLLSP | 0.143 ± 0.0096 | 0.132 ± 0.021 | 0.182 ± 0.024 | 0.294 ± 0.0094 | 0.223 ± 0.0038 | 0.156 ± 0.035 | 0.245 ± 0.024 | 0.176 ± 0.012
FLSVPHLLFLFI | 0.608 ± 0.0063 | 0.634 ± 0.016 | 0.494 ± 0.021 | 0.619 ± 0.0054 | 0.49 ± 0.016 | 0.4689 ± 0.0032 | 0.6023 ± 0.0038 | 0.511 ± 0.017
FFFVFLGLRSVF | 0.348 ± 0.019 | 0.358 ± 0.084 | 0.357 ± 0.04 | 0.577 ± 0.11 | 0.339 ± 0.011 | 0.292 ± 0.016 | 0.434 ± 0.012 | 0.387 ± 0.049
MWRWASKCRFSM | 0.668 ± 0.025 | 0.706 ± 0.015 | 0.634 ± 0.015 | 0.759 ± 0.0097 | 0.231 ± 0.012 | 0.245 ± 0.022 | 0.515 ± 0.047 | 0.367 ± 0.011
